# “Also recorded” adds a separate entry of the source. Read-outs that look alike come from different tables or passages of the source.
# T1: HMG-CoA reductase (Homo sapiens, UniProt P04035)
# T1 construct: The cell proteins were used as enzyme source; endogenous in cells; host or cells: HepG2
# T1 sequence (P04035 1-888): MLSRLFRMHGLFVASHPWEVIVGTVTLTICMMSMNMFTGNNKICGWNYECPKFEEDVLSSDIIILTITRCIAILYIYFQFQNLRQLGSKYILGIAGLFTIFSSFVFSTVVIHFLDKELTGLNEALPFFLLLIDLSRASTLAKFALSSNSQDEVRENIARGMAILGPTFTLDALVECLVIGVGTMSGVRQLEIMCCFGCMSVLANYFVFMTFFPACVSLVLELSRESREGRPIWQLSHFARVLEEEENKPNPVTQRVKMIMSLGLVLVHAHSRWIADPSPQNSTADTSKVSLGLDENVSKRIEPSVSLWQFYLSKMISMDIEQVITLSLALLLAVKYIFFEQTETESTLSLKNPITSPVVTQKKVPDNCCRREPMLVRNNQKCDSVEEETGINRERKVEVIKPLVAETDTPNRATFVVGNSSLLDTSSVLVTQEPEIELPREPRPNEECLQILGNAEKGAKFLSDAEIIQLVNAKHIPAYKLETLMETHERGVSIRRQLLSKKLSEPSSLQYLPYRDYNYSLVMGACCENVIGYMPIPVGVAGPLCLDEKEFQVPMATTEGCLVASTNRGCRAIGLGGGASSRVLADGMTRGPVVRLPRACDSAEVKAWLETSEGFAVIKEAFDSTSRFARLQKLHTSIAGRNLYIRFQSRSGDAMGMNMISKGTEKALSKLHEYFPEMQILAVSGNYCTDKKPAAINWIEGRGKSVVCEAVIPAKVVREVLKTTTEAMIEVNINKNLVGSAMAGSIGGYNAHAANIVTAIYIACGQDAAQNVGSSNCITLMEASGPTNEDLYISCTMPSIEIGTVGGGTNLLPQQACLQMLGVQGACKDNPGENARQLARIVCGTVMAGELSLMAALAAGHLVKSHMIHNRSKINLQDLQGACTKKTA
# T2: HMGCoA reductase (Rattus norvegicus, UniProt P51639)
# T2 construct: enzymes purified from the rat liver microsomes; from tissue; host or cells: rat hepatocytes / rat liver microsomes
# T2 sequence (P51639 1-887): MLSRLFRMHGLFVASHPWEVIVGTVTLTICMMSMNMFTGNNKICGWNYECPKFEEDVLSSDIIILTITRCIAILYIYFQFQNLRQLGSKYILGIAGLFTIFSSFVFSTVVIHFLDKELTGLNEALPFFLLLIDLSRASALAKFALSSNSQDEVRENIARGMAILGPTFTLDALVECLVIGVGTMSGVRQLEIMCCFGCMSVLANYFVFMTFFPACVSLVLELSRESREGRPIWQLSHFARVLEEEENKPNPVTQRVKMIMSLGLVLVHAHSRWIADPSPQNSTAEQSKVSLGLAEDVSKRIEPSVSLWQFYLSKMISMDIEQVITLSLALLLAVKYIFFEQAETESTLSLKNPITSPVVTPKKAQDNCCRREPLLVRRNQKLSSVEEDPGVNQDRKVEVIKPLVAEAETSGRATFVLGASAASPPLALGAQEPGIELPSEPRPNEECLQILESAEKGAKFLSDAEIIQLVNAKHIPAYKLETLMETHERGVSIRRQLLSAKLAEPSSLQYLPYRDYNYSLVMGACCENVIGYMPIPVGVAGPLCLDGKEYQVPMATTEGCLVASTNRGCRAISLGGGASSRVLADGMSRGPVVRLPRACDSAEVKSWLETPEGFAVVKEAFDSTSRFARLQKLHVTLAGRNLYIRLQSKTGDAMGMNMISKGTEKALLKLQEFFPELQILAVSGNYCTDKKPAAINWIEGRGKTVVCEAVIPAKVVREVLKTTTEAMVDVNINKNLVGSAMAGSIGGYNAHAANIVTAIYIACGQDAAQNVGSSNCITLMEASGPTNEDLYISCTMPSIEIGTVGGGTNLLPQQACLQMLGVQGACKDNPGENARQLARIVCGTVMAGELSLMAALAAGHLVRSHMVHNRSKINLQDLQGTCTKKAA
# T3: HMG-CoA reductase from human hepatoma HepG2 cells (human) (UniProt P04035)
# T3 sequence: T1 sequence (P04035 1-888)
# B1: JCH2 native protein purified from Buthus martensii Karsch venom (protein)
# chain: DSLSPWNEGDTYYGCQRQTDEFCNKICKLHLASGGSCQQPAPFVKLCTCQGIDYDNSFFFGALEKQCPKLRE
# Experiments:
# [1] = molecular target: T1, HMG-CoA reductase; assay: HMGCoA reductase activity assay, HepG2 cells treated with inhibitors, cell proteins used as enzyme source; type: cell-based
# Method: The cell stocks of Human Hepatoma cell line-HepG2 were cultured in T-25 flask in Eagle's minimum essential medium (MEM), supplemented with 10% fetal bovine serum, and incubated in a humidified incubator (5% CO2) at 37° C.
# After 4 hours incubation with the inhibitors, the media was discarded and cells were washed with 0.90%saline. The cells were scraped and collected into a 50 ml tube. The cells were centrifuged at 2400 rpm for 5 min at 4 C, and the resulting cell pellet was washed twice with 10 ml saline. The final cell pellet was resuspended in 30 μl lysis buffer and briefly sonicated. The suspension was centrifuged at 14,000 rpm for 15 min and the supernatant containing the enzyme, HMGCoA reductase, was used for the assay.
# In biosynthesis of cholesterol, HMG-CoA reductase is the key enzyme to convert HMG-CoA to its product mevalonate. In the presence of HCl, the mevalonate is converted into mevalonolactone. […] It will retain HMG-CoA, which is negatively charge in the column but not mevalonolactone, which will be eluted out by ammonium formate.
# The 50 μl assay buffer (100 mM potassium dihydrogen phosphate, 4 mM dithiothreitol, 20 mM glucose-6-phosphate, 20 unit glucose-6-phosphate dehydrogenase, 2.5 mM NADP^+, 30 μM [14C] HMG-CoA (0.01 μCi) and microsomal protein) was incubated at 37° C. for 1 hour. Reaction was terminated by addition of 25 μl of 2M HCl. After 30 min lactonization of mevalonate to mevalonolactone, 500 μl of 20 mM ammonium formate was added to each sample, spun for 5 min at 14,000 rpm.
# Supernatant was applied to the column that is pre-packed with QAE-Sephadex (4 cm), equilibrated with ammonium formate. The first 5 ml fractions was eluted with 20 mM ammonium formate, followed by 5 ml of 0.05M HCl and 10 ml of 0.1M HCl. Radioactivity of the first 5 ml (1 ml fraction) was determined using Beckman LS6500 scintillation counter.
# [2] = molecular target: T2, HMGCoA reductase; assay: HMGCoA reductase assay using the enzyme isolated from rat hepatocytes, inhibitors added to the enzyme assay; type: biochemical; conditions: enzyme from rat hepatocytes / rat liver microsomes
# [3] = test system: HepG2 cell; assay: Microarray analysis (global gene expression, HG_U133A chips) of treated HepG2 cells; type: cell-based, human
# Method: The global gene expression (DNA microarray) analysis was carried out on human gene chips (HG_U133A). […] Genes showing two-fold signal to log ratio in expression from two independent experiments were scored as significant.
# [4] = molecular target: T3, HMG-CoA reductase from human hepatoma HepG2 cells (human); assay: cell-based or functional assay
# [5] = test system: HepG2 cell protein profile; assay: Protein profiling by SELDI-TOF (H4 and NP20 chips) of treated HepG2 cells; type: cell-based, human; conditions: Table 3A, hydrophobic chip H4
# Text: As for the protein profiling data, the profiles as shown in Table 3 were obtained by surface-enhanced laser […] ionization-time of flight mass spectro-photometry (SELDI-TOF) on treated and control samples using the H4 (hydrophobic) and the NP20 (hydrophilic) chips.
# [6] = HepG2 cells treated with synthetic peptides or statins at 10 μM, vs untreated cells
# [7] = HepG2, read-out: % of inhibition on HMG-CoA reductase activity, DMSO medium
molecule,measurement,setting,value
PAPFVKLCTCQGIDYDNSFFFG (Buthus martensii Karsch) [Peptide 3],"% of inhibition on HMG-CoA reductase activity, Aqueous medium",[1]; [6],10%
same,"% of inhibition on HMG-CoA reductase activity, DMSO medium",[1]; [6],15%
KLHLASGGSCQQPAPFVKL (Buthus martensii Karsch) [Peptide 2],"% of inhibition on HMG-CoA reductase activity, Aqueous medium",[1]; [6],30%
same,"% of inhibition on HMG-CoA reductase activity, DMSO medium",[1]; [6],7%
LSPWNEGDTYYGCQR (Buthus martensii Karsch) [Peptide 7],"% of inhibition on HMG-CoA reductase activity, Aqueous medium",[1]; [6],2%
DSLSPWNEGDTYYG (Buthus martensii Karsch) [Peptide 6],"% of inhibition on HMG-CoA reductase activity, Aqueous medium",[1]; [6],4%
SPWNEGD (Buthus martensii Karsch) [Peptide 8],"% of inhibition on HMG-CoA reductase activity, Aqueous medium",[1]; [6],1%
"CC(C)c1c(C(=O)Nc2ccccc2)c(-c2ccccc2)c(-c2ccc(F)cc2)n1CC[C@@H](O)C[C@@H](O)CC(=O)O [Atorvastatin, reference compound]",inhibition at 10 µM,[1]; [7],70%
"CC(C)n1c(/C=C/C(O)CC(O)CC(=O)O)c(-c2ccc(F)cc2)c2ccccc21 (centres unmarked) [Fluvastatin, reference compound]",inhibition at 10 µM,"[1]; HepG2 cells treated with synthetic peptides or statins at 10 μM, vs untreated cells, read-out: % of inhibition on HMG-CoA reductase activity, DMSO medium",74%
"CC[C@H](C)C(=O)O[C@H]1CCC=C2C=C[C@H](C)[C@H](CC[C@@H]3C[C@@H](O)CC(=O)O3)[C@H]21 [Mevastatin, reference compound]","% of inhibition on HMG-CoA reductase activity, Aqueous medium",[1]; 10 µM,35%
same,"% of inhibition on HMG-CoA reductase activity, DMSO medium",[1]; 10 µM,60%
QGIDYDNSFFFGALEKQCPK (Buthus martensii Karsch) [Peptide 4],"% of inhibition on HMG-CoA reductase activity, Aqueous medium",[1]; [6],7%
GCQRQTDEFCNKICKLHLASG (Buthus martensii Karsch) [Peptide 5],"% of inhibition on HMG-CoA reductase activity, Aqueous medium",[1]; [6],2%
GDTYYG (Buthus martensii Karsch) [Peptide 9],"% of inhibition on HMG-CoA reductase activity, Aqueous medium",[1]; [6],3%
"CCC(C)(C)C(=O)O[C@H]1C[C@@H](C)C=C2C=C[C@H](C)[C@H](CC[C@@H]3C[C@@H](O)CC(=O)O3)[C@H]21 [Simvastatin, reference compound]",inhibition at 10 µM,"[1]; HepG2, read-out: % of inhibition on HMG-CoA reductase activity, Aqueous medium",35%
same,inhibition at 10 µM,[1]; [7],65%
QPAPFVKLCTCQGI (Buthus martensii Karsch) [Peptide 1],"% of inhibition on HMG-CoA reductase activity, Aqueous medium",[1]; [6],20%
same,"% of inhibition on HMG-CoA reductase activity, DMSO medium",[1]; [6],20%
B1,HMGCoA reductase inhibitory activity (in words),[2],higher inhibitory activity
same,HMGCoA reductase inhibitory activity compared with statins (in words),"[1]; HepG2 cell HMGCoA reductase, JCH2 0.6 μM vs statins 10 μM",lowering the HMGCoA reductase activity at much lower concentrations than the known inhibitors; also recorded: higher inhibitory activity
same,"% of inhibition on HMG-CoA reductase activity, Aqueous medium","[1]; HepG2 cells treated with native proteins at 10 μg each (JCH2 0.6 μM), vs untreated cells",30%
same,HMGCoA reductase mRNA (in words),[3]; microarray,reducing the reductase mRNA
same,"mevalonate, the precursor for cholesterol biosynthesis (in words)",[3]; microarray analysis,lowering the mevalonate
same,"% of inhibition on HMG-CoA reductase activity, aqueous medium, JCH2 at 0.6 µM (10 µg)",[4],30%
same,ApoC-II/III (8.8 kDa),[5],↑ ↑
same,StAR related lipid transfer protein (23.0 kDa),[5],↑ ↑
